The target in assay [1] is T1, TbPRMT7 (Trypanosoma brucei brucei, UniProt Q582G4).
T1 construct: made in house
The assay is described as follows: Fluorescence-based coupled assay, TbPRMT7 with 8-aza-SAM cofactor. It is filed as biochemical. The conditions noted are these: 8-aza-SAM 25.0 μM, pH=7.60, fluorescence-mode. As to the method:
Briefly, the 250-μL reaction mixtures from a same row contained 25 mM phosphate buffer pH=7.60, 1 mM βME, 10% glycerol, 4 μM coupling deaminase TM0936, 805.2 nM TbPRMT7 and various peptide concentrations (0-144.55 μM. The first well contained only 8-aza-SAM without any coupling enzyme, nor methyltransferase; in the second well, peptide acceptor was omitted to account for background signal—natural decomposition of 8-aza-SAM). […]

Assay [2] has as its target T2, CePRMT5 (Caenorhabditis elegans, UniProt P46580).
T2 construct: made in house
T2 sequence (P46580 1-734): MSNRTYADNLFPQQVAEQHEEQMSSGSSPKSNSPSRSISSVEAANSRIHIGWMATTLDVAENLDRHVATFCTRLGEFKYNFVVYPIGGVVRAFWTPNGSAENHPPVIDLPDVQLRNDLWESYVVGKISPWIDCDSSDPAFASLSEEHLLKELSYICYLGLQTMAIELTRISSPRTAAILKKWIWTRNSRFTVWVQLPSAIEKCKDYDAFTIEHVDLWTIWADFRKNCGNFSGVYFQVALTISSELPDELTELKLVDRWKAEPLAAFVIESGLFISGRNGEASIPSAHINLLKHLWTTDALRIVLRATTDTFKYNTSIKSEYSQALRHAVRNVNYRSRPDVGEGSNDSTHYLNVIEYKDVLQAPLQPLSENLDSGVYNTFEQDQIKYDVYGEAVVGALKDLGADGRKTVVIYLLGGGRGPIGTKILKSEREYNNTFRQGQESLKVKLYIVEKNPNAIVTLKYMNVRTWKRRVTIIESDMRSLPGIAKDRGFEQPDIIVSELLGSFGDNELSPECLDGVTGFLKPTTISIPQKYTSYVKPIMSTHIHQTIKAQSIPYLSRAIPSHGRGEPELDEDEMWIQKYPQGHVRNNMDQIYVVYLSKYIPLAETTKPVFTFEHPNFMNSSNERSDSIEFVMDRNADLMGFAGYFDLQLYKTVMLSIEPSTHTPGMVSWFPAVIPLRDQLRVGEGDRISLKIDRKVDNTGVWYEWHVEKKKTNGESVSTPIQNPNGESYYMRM
The assay is described as follows: 1-Step EZ-MTase UV-based coupled assay, CePRMT5 kinetics. It is filed as biochemical. The conditions noted are these: pH=7.60, co-substrate saturating, 4 μM TM0936; 263 nm (282 nm for 8-aza-SAM). As to the method:
The 250-μL reaction mixtures from a same row contained 50 mM phosphate buffer pH=7.60, 1 mM βME, 10% glycerol, 4 μM coupling deaminase TM0936, 300 nM CePRMT5 and various peptide concentrations (5-180 μM; in the first well, peptide acceptor was omitted to account for background signal—natural decomposition of SAM). The methyltransfer reactions started upon addition of SAM (25 μM saturating final concentration) and absorbance was recorded.
The 250-μL reaction mixtures from a same row contained 50 mM phosphate buffer pH=7.60, 1 mM βME, 10% glycerol, 4 μM coupling deaminase TM0936, 300 nM CePRMT5 and various SAM concentrations (2.35-47.0 μM). […] Initial rates were first corrected for background signal, then plotted against SAM concentrations and fitted to the Morrison kinetic model to yield corresponding kinetic parameters.
(§1) Kinetic behavior for 8-aza-SAM against MTases (acceptor sat.)—Briefly, kinetic parameters were determined at 20° C. in a UV-Star 96-well flat bottom plate (Greiner Bio-One, #655801) by continuous monitoring of absorbance at 282 nm using a SpectraMax M5 instrument (Molecular Devices). As for SAM experiments, the measurements consisted of two experimental subsets: MTase reactions (both 8-aza-SAM and acceptor added) and MTase blanks (8-aza-SAM was added without acceptor to account for natural 8-aza-SAM decomposition). The 250-μL (60-μL) reaction mixtures from a same row contained 50 mM phosphate buffer pH=7.60 (7.80), 1 mM βME, 10% glycerol (5% glycerol, 100 μM MgCl2), 4 μM coupling deaminase TM0936, either 1.5 μM CePRMT5 or 402 nM TbPRMT7 (or 610 nM GsSDMT) and various 8-aza-SAM concentrations. […] Initial rates were first corrected for background signal, then plotted against 8-aza-SAM concentrations and fitted to the Michaelis-Menten equation to yield corresponding kinetic parameters.

Assay [3] has as its target T1, TbPRMT7. The assay is described as follows: 1-Step EZ-MTase UV-based coupled assay, TbPRMT7 kinetics (incl. ionic strength). It is filed as biochemical. The conditions noted are these: pH=7.60, 25 mM phosphate, co-substrate saturating. As to the method:
Briefly, the 250-μL reaction mixtures from a same row contained 25 mM phosphate buffer pH=7.60, 1 mM βME, 10% glycerol, 4 μM coupling deaminase TM0936, 1.0 μM TbPRMT7 and various peptide concentrations (16.6-243.3 μM; in the first well, peptide acceptor was omitted to account for background signal—natural decomposition of SAM). Reactions started upon addition of SAM (25.8 μM saturating final concentration) and absorbance was recorded. […] Fit to the Michaelis-Menten model (Eq. 5) provided corresponding kinetic parameters:
Briefly, the measurements consisted of two experimental subsets: MTase reactions (both SAM and peptide added) and MTase blanks (SAM was added without peptide to account for natural SAM decomposition). The 250-μL reaction mixtures from a same row contained 25 mM phosphate buffer pH=7.60, 1 mM βME, 10% glycerol, 4 μM coupling deaminase TM0936, 402 nM TbPRMT7 and various SAM concentrations (1.53-20.0 μM). […] Initial rates were first corrected for background signal, then plotted against SAM concentrations and fitted to the Morrison kinetic model to yield corresponding kinetic parameters.
as §1, with “parameters. The kinetic data from CePRMT5 were fit to the following Eq. 6 to reflect substrate inhibition observed at higher 8-aza-SAM concentration:” for “parameters.”
Experiments were conducted following TbPRMT7 protocol above. Briefly, the 250-μL reaction mixtures from a same row contained either 25, 50, 75 or 100 mM phosphate buffer pH=7.60, 1 mM βME, 10% glycerol, 4 μM coupling deaminase TM0936, 1.0 μM TbPRMT7 and various peptide concentrations (16.6-243.3 μM; in the first well, peptide acceptor was omitted to account for background signal—natural decomposition of SAM). Reactions started upon addition of SAM (25.8 μM saturating final concentration) and absorbance was recorded. […] The four fits to the Michaelis-Menten equation (kcat fixed at 29 h^−1) provided corresponding Km values and established impact of ionic strength onto this kinetic parameter.

In assay [4] the target is T2, CePRMT5. The note with it: lit. (46); cited from earlier work.
The next assay has as its system deaminase PA3170. The assay is described as follows: Deamination of 5DOA by PA3170. Type of assay: biochemical, Pseudomonas aeruginosa. The source says: FIG. 3A-3C. The reaction catalyzed by deaminase PA3170 and its use as a coupling enzyme for monitoring radical SAM (RS) enzymes activity. (A) The 5′-deoxy-adenosine (5DOA) by-product of radical SAM enzyme reactions is efficiently converted into its inosyl-derivative (5DOI) by the deaminase PA3170. (B) The […] conversion is confirmed by HPLC as these two molecules have distinct retention times. The different spectral signatures between 5DOA and 5DOI (λmax1=259 nm and λmax2=249 nm, respectively) allow continuous monitoring of […] through UV-detection.

In a further assay the target is GNMT (Rattus norvegicus, UniProt P13255). The conditions noted are these: cited from earlier work.
Chain of GNMT (P13255 whole entry): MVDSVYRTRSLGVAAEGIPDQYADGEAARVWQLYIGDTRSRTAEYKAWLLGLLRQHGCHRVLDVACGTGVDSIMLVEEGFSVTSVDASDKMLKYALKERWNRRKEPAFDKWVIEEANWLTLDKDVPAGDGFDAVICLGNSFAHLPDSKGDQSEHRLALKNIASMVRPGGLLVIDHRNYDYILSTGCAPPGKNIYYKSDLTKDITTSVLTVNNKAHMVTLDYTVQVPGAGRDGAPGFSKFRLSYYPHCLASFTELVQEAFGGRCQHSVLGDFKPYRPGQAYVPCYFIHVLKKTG
Assay [5] deals with T3, NcDIM-5 (Neurospora crassa, UniProt Q8X225).
T3 construct: GST; made in house
T3 sequence (Q8X225 1-331): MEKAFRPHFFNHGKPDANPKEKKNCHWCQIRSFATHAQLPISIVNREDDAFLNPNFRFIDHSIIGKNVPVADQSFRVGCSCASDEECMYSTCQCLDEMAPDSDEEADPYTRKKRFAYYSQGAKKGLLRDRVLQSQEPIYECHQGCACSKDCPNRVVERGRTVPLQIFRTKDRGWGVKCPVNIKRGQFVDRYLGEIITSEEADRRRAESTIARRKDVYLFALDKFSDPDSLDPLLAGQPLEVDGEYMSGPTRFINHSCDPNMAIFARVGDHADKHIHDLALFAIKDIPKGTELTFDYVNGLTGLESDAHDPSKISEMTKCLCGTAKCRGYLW
The assay is described as follows: Reported (literature) NcDIM-5 kinetics. The conditions noted are these: from reported values lit. (53). It is filed as biochemical.

Assay [6] addresses T3, NcDIM-5. The conditions noted are these: literature values; cited from earlier work.
The target in a further assay is T4, GsSDMT (Galdieria sulphuraria, UniProt M2XPA0).
T4 sequence (M2XPA0 2-297): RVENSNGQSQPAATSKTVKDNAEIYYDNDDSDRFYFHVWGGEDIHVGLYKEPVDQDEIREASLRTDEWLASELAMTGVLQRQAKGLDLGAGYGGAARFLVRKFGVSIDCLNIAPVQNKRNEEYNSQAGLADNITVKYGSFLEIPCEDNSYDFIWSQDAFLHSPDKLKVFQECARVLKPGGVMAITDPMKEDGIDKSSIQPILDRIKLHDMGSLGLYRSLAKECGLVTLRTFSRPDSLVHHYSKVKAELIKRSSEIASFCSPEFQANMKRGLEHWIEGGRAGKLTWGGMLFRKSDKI
The assay is described as follows: GsSDMT inhibition by sinefungin (UV-mode). The conditions noted are these: pH=6.80, SAM 763 μM, sarcosine 5 mM, 195 nM GsSDMT; read-out: inhibition constant Ki. Type of assay: biochemical. As to the method:
Briefly, kinetic parameters were determined at 20° C. in a UV-Star 96-well flat bottom plate (Greiner Bio-One, #655801) by continuous monitoring of absorbance at 263 nm using a SpectraMax M5 instrument (Molecular Devices). The 100-μL reaction mixtures from a set of two rows contained 100 mM phosphate buffer pH=6.80, 1 mM βME, 5% glycerol, […] MgCl2, 4 μM coupling deaminase TM0936, 195 nM GsSDMT, saturating level of SAM (763 μM) and various sinefungin concentrations (0.8-244 μM). In the first row, the sarcosine acceptor was omitted to account for background signal (i.e. natural catabolism of sinefungin and SAM decomposition). The methyltransfer reactions started upon addition of sarcosine (5 mM saturating final concentration). Volumes (60-μL) were transferred onto plate and absorbance signals were recorded. The initial rates of the reactions were corrected using data from first row experiments and plotted against sinefungin concentrations. Fit to the following Eq. 7 provided corresponding inhibition constant (Ki):
where V and V0 are the initial velocity with and without inhibitor, respectively. The Michelis constant for SAM substrate is depicted as Km and [SAM] is the concentration of this same molecule. The inhibition constant for sinefungin is represented by Ki and [SIN] is the concentration of this inhibitor. The parameter γ is the Hill coefficient. […]

The term Km denotes the concentration of substrate that gives half-maximal velocity. The kcat is the number of substrate molecules converted per active site and unit of time at saturation. By Ki is commonly meant a measure of affinity in units of concentration, obtained from inhibition or displacement.

Like-named read-outs stand apart in the source and are kept apart here.

T1 sequence (Q582G4 whole entry): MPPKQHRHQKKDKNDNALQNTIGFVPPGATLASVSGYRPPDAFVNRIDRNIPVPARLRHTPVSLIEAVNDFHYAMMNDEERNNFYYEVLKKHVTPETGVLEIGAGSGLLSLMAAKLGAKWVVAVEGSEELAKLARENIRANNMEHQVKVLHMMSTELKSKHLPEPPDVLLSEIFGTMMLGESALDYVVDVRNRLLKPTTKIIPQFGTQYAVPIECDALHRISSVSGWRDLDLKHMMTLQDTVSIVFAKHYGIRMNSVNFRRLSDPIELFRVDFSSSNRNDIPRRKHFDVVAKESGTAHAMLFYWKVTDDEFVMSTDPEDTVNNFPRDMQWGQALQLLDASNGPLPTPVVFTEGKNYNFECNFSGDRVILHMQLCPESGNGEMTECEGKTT

Regarding “H4(1-20): H4(1-20) peptide substrate for CePRMT and TbPRMT7, purchased from GenScript”, the Km was 71 ± 8 µM with TbPRMT7 [1], 26 ± 2 µM with CePRMT5 [2], 39 ± 3 µM with TbPRMT7 [3] and 54 ± 4 µM in the assay with CePRMT5 [4]. Also, the kcat with TbPRMT7 [1] is 0.0108 ± 0.00056 s⁻¹; in the assay with CePRMT5 [2] it was 0.00914 ± 0.00022 s⁻¹; with TbPRMT7 [3] it was 0.00783 ± 0.00019 s⁻¹; with CePRMT5 [4], 0.00794 ± 0.00019 s⁻¹.
As to `C[C@H]1O[C@@H](n2cnc3c(N)ncnc32)[C@H](O)[C@@H]1O` [5DOA, 5′-deoxy-adenosine], in the assay on deaminase PA3170, the “conversion into 5DOI by PA3170” value is “full conversion”.
With `NCC(=O)O` [glycine], the Km on GNMT is 130 µM.
As to “H3(1-20): H3(1-20) peptide harboring a N-terminal biotinylation, from previous report”, the overall catalytic efficiency with NcDIM-5 [5] was found to be 19 µM⁻¹ h⁻¹. In the assay with NcDIM-5 [6], the Michaelis constant (Km) was 7.4 µM and the kcat is 0.0383 s⁻¹.
`Nc1ncnc2c1ncn2[C@@H]1O[C@H](C[C@@H](N)CC[C@H](N)C(=O)O)[C@@H](O)[C@H]1O` [sinefungin]: the Ki at GsSDMT was 1800 ± 400 nM.
